Patent US10064928B2, “Peptides and combination of peptides for use in immunotherapy against CLL and other cancers” (IMMATICS BIOTECHNOLOGIES GMBH, priority 2015, dated 2018)

Target: HLA-A*02:01 (Homo sapiens, UniProt P04439, D140Y/D185E/D98H/E176V/E277Q/G131W/G231S/I119V/I121R/I166T/I218V/L300P/L318F/N151K/N90K/P208A/P217A/Q86G/Q94H/R138H/R169H/T345S)
Assay: MHC binding assay (UV-ligand exchange, beta2m ELISA)
Conditions: binding of HLA-class I restricted peptides to HLA-A*02:01, β2m ELISA
Summary of the method: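 UV-exchange pMHC monomers, 100-fold diluted → streptavidin capture 1 h 37 °C → HRP anti-β2m 2 ug/ml 1 h 37 °C → TMB, A450. Yield from HLA-A*02:01/MLA-001 monomer standard curve, 15-500 ng/ml. Only stably bound peptides keep β2m-containing complexes intact.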

Substance	Peptide Exchange (MHC class I binding score, peptide exchange yield)
15 (ALPEVSVEA; listed as Homo sapiens) [compound 15]	“+++” (≥50 = +++)
139 (NLTDVVEKL; listed as Homo sapiens) [compound 139]	“+++” (≥50 = +++)
52 (FLVETGFLHV; listed as Homo sapiens) [compound 52]	“++++” (≥75% = ++++)
74 (GLLRASFLL; listed as Homo sapiens) [compound 74]	“++” (≥20% = ++)
60 (FVLDHEDGLNL; listed as Homo sapiens) [compound 60]	“+++” (≥50 = +++)
13 (VVDGMPPGV; listed as Homo sapiens) [compound 13]	“+++” (≥50 = +++)
94 (ILFPLRFTL; listed as Homo sapiens) [compound 94]	“+++” (≥50 = +++)
58 (YIQQGIFSV; listed as Homo sapiens) [compound 58]	“+++” (≥50 = +++)
70 (FVPDTPVGV; listed as Homo sapiens) [compound 70]	“+++” (≥50 = +++)
47 (FLSDQPEPYL; listed as Homo sapiens) [compound 47]	“++” (≥20% = ++)
115 (LLFDKLYLL; listed as Homo sapiens) [compound 115]	“+++” (≥50 = +++)
48 (FLSPQQPPLL; listed as Homo sapiens) [compound 48]	“+++” (≥50 = +++)
29 (AVLQAVTAV; listed as Homo sapiens) [compound 29]	“+++” (≥50 = +++)
89 (ILDFGTFQL; listed as Homo sapiens) [compound 89]	“+++” (≥50 = +++)
4 (VIAELPPKVSV; listed as Homo sapiens) [compound 4]	“+++” (≥50 = +++)
38 (FIMEGGAMV; listed as Homo sapiens) [compound 38]	“+++” (≥50 = +++)
124 (LLLEETEKQAV; listed as Homo sapiens) [compound 124]	“+++” (≥50 = +++)
95 (ILGYMAHEHKV; listed as Homo sapiens) [compound 95]	“++” (≥20% = ++)
44 (FLLSINDFL; listed as Homo sapiens) [compound 44]	“+++” (≥50 = +++)
136 (NLDKLWTLV; listed as Homo sapiens) [compound 136]	“++” (≥20% = ++)
116 (LLIGATMQV; listed as Homo sapiens) [compound 116]	“+++” (≥50 = +++)
110 (LLFDHLEPMEL; listed as Homo sapiens) [compound 110]	“+++” (≥50 = +++)
93 (ILFNTQINI; listed as Homo sapiens) [compound 93]	“+++” (≥50 = +++)
42 (FLEEGGVVTV; listed as Homo sapiens) [compound 42]	“+++” (≥50 = +++)
65 (GLDDMKANL; listed as Homo sapiens) [compound 65]	“++” (≥20% = ++)
82 (GLQSGVDIGV; listed as Homo sapiens) [compound 82]	“+++” (≥50 = +++)
20 (ALVDPGPDFVV; listed as Homo sapiens) [compound 20]	“+++” (≥50 = +++)

The next lines start with the values.

Peptide Exchange (MHC class I binding score, peptide exchange yield)	Substance
“++++” (≥75% = ++++)	294 (ALLDQLHTLL; listed as Homo sapiens) [compound 294]
“++++” (≥75% = ++++)	237 (GLQENLDVVV; listed as Homo sapiens) [compound 237]
“+++” (≥50 = +++)	176 (VLAEQNIIPSA; listed as Homo sapiens) [compound 176]
“+++” (≥50 = +++)	167 (TLDTSKLYV; listed as Homo sapiens) [compound 167]
“+++” (≥50 = +++)	198 (YLTFLPAEV; listed as Homo sapiens) [compound 198]
“+++” (≥50 = +++)	361 (ILQEFESKL; listed as Homo sapiens) [compound 361]
“+++” (≥50 = +++)	330 (VLMWEIYSL; listed as Homo sapiens) [compound 330]
“++” (≥20% = ++)	337 (YMYEKESEL; listed as Homo sapiens) [compound 337]
“+++” (≥50 = +++)	157 (SLNIRDFTM; listed as Homo sapiens) [compound 157]
“++” (≥20% = ++)	247 (KLKDRLPSI; listed as Homo sapiens) [compound 247]
“+++” (≥50 = +++)	370 (SIFASPESV; listed as Homo sapiens) [compound 370]
“+++” (≥50 = +++)	352 (ALVFELHYV; listed as Homo sapiens) [compound 352]
“+++” (≥50 = +++)	314 (LMKDCEAEV; listed as Homo sapiens) [compound 314]
“+++” (≥50 = +++)	267 (TLLDWQDSL; listed as Homo sapiens) [compound 267]
“+++” (≥50 = +++)	350 (ALEDRVWEL; listed as Homo sapiens) [compound 350]
“+++” (≥50 = +++)	268 (TLLQVFHLL; listed as Homo sapiens) [compound 268]
“+++” (≥50 = +++)	241 (ILGDILLKV; listed as Homo sapiens) [compound 241]
“+++” (≥50 = +++)	273 (VLGEYSYLL; listed as Homo sapiens) [compound 273]
“++” (≥20% = ++)	246 (KLDETGVAL; listed as Homo sapiens) [compound 246]
“+++” (≥50 = +++)	242 (ILLGIQELL; listed as Homo sapiens) [compound 242]

Peptide Exchange (MHC class I binding score, peptide exchange yield)	Substance
“++++” (≥75% = ++++)	338 (FLDMTNWNL; listed as Homo sapiens) [compound 338]
“++++” (≥75% = ++++)	186 (VMDPTKILI; listed as Homo sapiens) [compound 186]
“+++” (≥50 = +++)	305 (LLFPQIEGIKI; listed as Homo sapiens) [compound 305]
“+++” (≥50 = +++)	156 (SLNIGDVQL; listed as Homo sapiens) [compound 156]
“+++” (≥50 = +++)	183 (VLMPTVYQQGV; listed as Homo sapiens) [compound 183]
“++++” (≥75% = ++++)	194 (YLDNVLAEL; listed as Homo sapiens) [compound 194]
“+++” (≥50 = +++)	152 (SLIRILQTI; listed as Homo sapiens) [compound 152]
“+++” (≥50 = +++)	278 (YLDDLLPKL; listed as Homo sapiens) [compound 278]
“+++” (≥50 = +++)	374 (VLSVITEEL; listed as Homo sapiens) [compound 374]
“+++” (≥50 = +++)	321 (RLLEFELAQL; listed as Homo sapiens) [compound 321]
“+++” (≥50 = +++)	295 (ALLQKLQQL; listed as Homo sapiens) [compound 295]
“+++” (≥50 = +++)	275 (VLLFIEHSV; listed as Homo sapiens) [compound 275]
“+++” (≥50 = +++)	375 (VLWFKPVEL; listed as Homo sapiens) [compound 375]
“+++” (≥50 = +++)	223 (ALWVSQPPEI; listed as Homo sapiens) [compound 223]
“+++” (≥50 = +++)	256 (QLLPVSNVVSV; listed as Homo sapiens) [compound 256]
“+++” (≥50 = +++)	230 (FLQDSKVIFV; listed as Homo sapiens) [compound 230]
“+++” (≥50 = +++)	182 (VLLSVPGPPV; listed as Homo sapiens) [compound 182]
“+++” (≥50 = +++)	302 (ILQDLTFVHL; listed as Homo sapiens) [compound 302]
“+++” (≥50 = +++)	276 (VLNDGAPNV; listed as Homo sapiens) [compound 276]
“++” (≥20% = ++)	353 (ATPMPTPSV; listed as Homo sapiens) [compound 353]
